Results reported in paper PMC2922993 (Nature chemical biology, 2010).
Non-standard residues stand in square brackets, D forms with d. No end group written: not given here. Lys(Me3) = C[N+](C)(C)CCCC[C@H](N)C(=O)O; Arg(Me2s) = CN=C(NC)NCCC[C@H](N)C(=O)O

B1: H3K4me3 peptide (ITC) (peptide)
chain: ART[Lys(Me3)]QTARKSTG
B2: H3R2me2s- modified peptide (peptide)
chain: A[Arg(Me2s)]TKQTARKSTG
B3: H3 peptide bearing K4me3 and R2me2s marks (peptide)
chain: A[Arg(Me2s)]T[Lys(Me3)]QTARKSTG

Experiments:
[1] = biological target: T1, inhibitor of growth 2 (ING2) PHD finger; assay: ITC
T1 sequence (Q9H160 whole entry, species assumed, looked up): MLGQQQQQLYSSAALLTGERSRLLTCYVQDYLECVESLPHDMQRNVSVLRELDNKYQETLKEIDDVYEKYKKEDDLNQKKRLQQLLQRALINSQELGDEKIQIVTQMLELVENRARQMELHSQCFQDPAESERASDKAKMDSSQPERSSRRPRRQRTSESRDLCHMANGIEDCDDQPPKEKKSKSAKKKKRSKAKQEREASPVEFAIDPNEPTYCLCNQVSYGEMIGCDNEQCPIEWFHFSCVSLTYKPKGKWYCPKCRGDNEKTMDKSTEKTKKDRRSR

[2] = biological target: BRAF-HDAC Complex 80 (BHC80)-PHD finger (UniProt Q96BD5 486-543); assay: ITC
Sequence of BRAF-HDAC Complex 80 (BHC80)-PHD finger (Q96BD5 486-543, one chain of several): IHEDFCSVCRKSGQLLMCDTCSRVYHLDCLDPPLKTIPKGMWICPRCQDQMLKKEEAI

Binder | Kd [1] | Kd [2]
B1 | 0.98 µM | 
B2 |  | 57.2 µM
B3 | 17.3 µM | 
